Measured values: patent US20040110161

Legend:
[1] = molecular target: T1, MutS (Cy5-labeled) (Escherichia coli) (UniProt P23909); conditions: mung bean nuclease and SSB treated hydrogel chip
T1 sequence: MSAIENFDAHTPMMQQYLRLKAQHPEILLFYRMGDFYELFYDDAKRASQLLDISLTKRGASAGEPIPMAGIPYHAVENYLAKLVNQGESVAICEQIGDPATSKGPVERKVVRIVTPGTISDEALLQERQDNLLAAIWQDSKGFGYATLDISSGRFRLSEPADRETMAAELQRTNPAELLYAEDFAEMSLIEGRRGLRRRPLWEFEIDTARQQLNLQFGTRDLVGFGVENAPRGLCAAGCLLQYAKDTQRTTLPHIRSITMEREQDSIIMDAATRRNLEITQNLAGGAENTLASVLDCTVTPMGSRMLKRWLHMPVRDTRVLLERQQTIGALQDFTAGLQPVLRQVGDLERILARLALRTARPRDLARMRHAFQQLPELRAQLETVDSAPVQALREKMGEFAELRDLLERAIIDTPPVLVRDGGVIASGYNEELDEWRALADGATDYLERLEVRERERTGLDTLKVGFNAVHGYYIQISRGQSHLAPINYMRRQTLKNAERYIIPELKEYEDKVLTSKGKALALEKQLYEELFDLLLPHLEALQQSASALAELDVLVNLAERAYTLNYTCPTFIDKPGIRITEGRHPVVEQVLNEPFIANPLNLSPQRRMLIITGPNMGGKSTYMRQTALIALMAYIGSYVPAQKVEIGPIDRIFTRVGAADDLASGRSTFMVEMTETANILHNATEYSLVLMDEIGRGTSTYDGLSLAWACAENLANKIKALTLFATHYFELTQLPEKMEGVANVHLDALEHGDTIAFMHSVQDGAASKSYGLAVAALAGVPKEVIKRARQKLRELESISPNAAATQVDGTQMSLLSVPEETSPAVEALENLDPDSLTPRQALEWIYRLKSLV

[2] = molecular target: T2, MBP-MutS fusion (Cy5-labeled) (Escherichia coli) (UniProt P23909); conditions: with nuclease and SSB
T2 sequence: T1 sequence

AGTGGTAATCTACTGGGACGGAACAGCTTTGAGGTGCGTGTTTGTGCCTGTCCTGGGAGAGACCGGCGCACAG (double strand) [cExon8/SW-480 PCR product]
binding signal (fluorescence units) [1]: 461
binding signal (fluorescence units) [2]: 168
